The series in a line: soluble fraction after stress (log2 fold change); higher = more stays soluble; pooled small domains, quantitative proteomics. Particulars: stress: 50 degC. The essentials: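 The measure of aggregation propensity here is the base-two logarithm of the fold change in the soluble amount of each protein after stress. A higher value means more of that protein stays in solution. Stress was applied at 50°C to pooled libraries of small protein domains, read out by high-throughput quantitative proteomics.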
“HMNNIGSKIKSAKILNNLDDNQLSEITGIDKLQLRSIQDGQVNPTKMELEIISKALKLPTNYFTK”: the “soluble fraction (log2)” value was -0.0222. Under “HMASSRPLAEGDFVRLRAGGATGRIESIKGQKATVQMGGLKVHAPLRDLLPVAEPIKQVSTASNT” stands 0.0407; under “HMNDSGIIGVVINDHEKYEGHVLEDGFISSSLSALSREIDVAGYFMMVKTVVYEGFFQELKGIGNV”, -0.00726; under “HMVPHTTSMVAEVQERLFNLNYDPGPINGRMDQATITAITRFQRNFSLPQTGQIDEGFLNTLRDARL”, -0.981. As to “HMSGLLTTSKLAQKHKMKTEPMLEKLTAAGYLEWRDDKHSLTEQGKKAGGQFKTGRFGAYFLWPEDLV”, the “soluble fraction (log2)” value was -0.259.

For the sequence “HMQAKDVEIPNFVGKTLAEANADNKDNFNFVVESKYDASKELGVILEQEPAADSKLVKSGSQITLKV”, the “soluble fraction (log2)” value is not below 0.62. Under “HMRLNIRTKNNYSYYTIIKDYTNLNGKRTTTIFEKLGNQQQVEERFGKVNTIENIKKYIEELNNE” stands -1.23; under “HMAAQDLIVKTDASQVEARVLEISPDAVRYKRFSNPDGPTYVLPVAEIRYIRYANGEVEYYA”, -0.0166; under “HMHDAKTQLQEEAARRGLPAPVYTRIGQEGPDHAPRFRVRADVGPHQAEAVAGSLKLAQAEAARAILRQMP”, 0.228.

As to “HMIGIGSDVPNKLKPAIYSFGLVAVGEKSVIPDGVQIGKNTAVSGVTSKEDYPDGVLESGETLIKA”, the “soluble fraction (log2)” value was 0.0103. Regarding “HMSVPEDLYFRELEVEGNKVRISGIASTNNRVSALMRNFDQSEWFRDPSLIKVESKSPGVNEFEIVMTRI”, the “soluble fraction (log2)” value came out at 0.0509.

For the sequence “HMANTAKVNVDTANLRETADENSKILKQLSLNDNLEVVEETGDWYKVKNSNVTGYVRKDLVTVEN”, the “soluble fraction (log2)” value is 0.371. Regarding “HMNYDPEEKITQIRTMLEIHSRIEFNEIITPATRRGEIIIIFLALLHMIKRGYIVVRQHRLFGDITIFARD”, the “soluble fraction (log2)” value is -0.152. As to “HMNIMNINQALNVLNLKGTVSKEELAKAYKKMAIKYHPDRNPTGVEMMKVINSAYEFLKGLNLEEIKH”, the “soluble fraction (log2)” value is 0.256.

Turning to “HMDQESFGYFHVKYADVKQVADLVQKLNIPAVTWADERTRRLVALGSPATLQRISQVLNMVDL”, the “soluble fraction (log2)” value is -0.721.

For “HMPSLSAILHDARVAAGLSMRQASAASGLSIGFISMLEQGKVQDISLQRLGRLVTAYDLEPLDVIEAAG”, the “soluble fraction (log2)” value is -1.55. Under “HMLNVNDVIARNVRAARERKKLTLDGAAELTGVSRSMLAQIEKGEVNPTISVVWKIANGFKVSFTSLVEPQ” stands -0.498; under “HMNVPLYIMIESAVEQRLLDGTYQVGKMIPTEFELMDEFSVSRETVRKAINLLVQRGKLEKKRGIGTFVAS”, -2.92.

Take “HMQARLPFSFAKRHGVILLAATGEGQSDVIYKSGFDIGALAEVRRFVAGEIALKEVDGPSFDRQLTLTYQN”: the “soluble fraction (log2)” value is -1.77.

Consider “HMNGAAAEQARKQLMTALKASEFIAQDKLDEWLDALALPQEKRSAIIDAVDELDYEEAISELEN”, for which the “soluble fraction (log2)” value was -0.0176. Under “HMDAQEAAWARKMMETLPEKQKLSVALRIEEGLSFKEIGEIIGSSEGAARVNYFHGIRRLRELL” stands -0.688; under “HMNVEVDSIGDDDFLVKVSAGTSTEHRVTLTDAYWEQIWSSSLPKKEIISLSFAFLLEREPNSSIMRT”, 0.0604. Under “HMEFPYISGVDVGTISNKEFARFETTKASDIVIALDKSGIPFSARFGDSEIVLTYDGSYKEEVEEIIAKV” stands 0.0138; under “HMPDLSEDEEKIVSLLRDNNDLNVNIIVMRTQLPSATVTSSLFSLELKGVVRMYAGGMYHLM”, -1.7.

In the case of “HMQDGTILPGQKTAIRSLATSGGYDSQDLDTYLATTYGKSIDGLTRTEGADVIKAFQAGTVAK”, the “soluble fraction (log2)” value amounted to 0.233. In the case of “HMKKTFSKSSVMEAIFRDIPNITIPNAHEVYTLIKNISVMNKRKSITSEDIEKAYDALGLTP”, the “soluble fraction (log2)” value was -0.865. Under “HMITLYIHNLEEVGKRLDHYLVSNLDDHSRSQIQSWIRSGSILVNDRSVKTGYSLELNDQILINPPK” stands -2.63; under “HMGALTGQERRAEIMNILRQSTMPLSGAALGKQLGVSRQVVVQDIALLRQSGEEIYATNRGYVTG”, -0.129; under “HMPVNEEFKRLIDKIKYEFSINQAQISERLGVKSTYLSDMINGRVPYNESMQKKIHEVFHIG”, -0.0665.

Consider “HMKVGEIIKAKREELKIPLVNFAKELDISQGYLSQIENGIKTNPNLDIILKIIHRLDIDLAMLL”, for which the “soluble fraction (log2)” value was -1.32. Under “HMIRMPNLIGLSVRSAEQQLVIAGLKKGIVHQVNDPRLKEVIDMQALGHKITAGSSIPKGTEVDLYIGNGT” stands 0.146. Under “HMDARSTHIAAIHVLKSKLQLQDSDYRALLLTLTGQTSSKDLSEHQRRAVRNHMQQLAERMGVVQ” stands -0.533; under “HMGDYERVPEYKGKLTSDLTMEDSQKFAFRFIWQNSDEDEGKIIDQDPPAGKSVAKGSEIVLYVSNG”, 0.35.

Regarding “HMNADKEALIAAAYRNSLIENFGTENVERYEERFNKWADKHDRQGMPMYPTIEKWMNEDNIA”, the “soluble fraction (log2)” value came to 0.111. Under “HMGREVVVPNLAGIEKEVALDLLKKNRLGGMITGTRFSSDFPAGQVIQQMPEAGSRVKVGKQVKLVLSEG” stands 0.323; under “HMTTLDTVARQLRDRIREQLDPTGEMSDESLLRTIEEAVYRYSSSGHVLTANEKETVIRRIFHSFR”, 0.0252; under “HMKEEVSVPDIKGMTYEEAEAKLAKYDLEIEKGETVKASEQYEEGQISSQEPEAGSKVKEGSTIVVDVVE”, 0.316. Under “HMIEEIPYSQFMSMLEEGKIDKAEIYQDSIIFSTKPDEQGKAGYYSIAYMKDNVLADRLYDAGVEFTPII” stands -0.156; under “HMGMAGILDSARMASFIQEKLGYGGGQIRASVMGGHGDDMVPLPRYSTVAGVPLSDVLTQNEIDEMFAQ”, -0.0615; under “HMTAPELGIRQDGNTLVIFWPSSVTGYVLKSADAVDTPPASWTSVTHTTVGDEHRAEITPTGNSRFFRLV”, -0.267. Under “HMSEYIFGKNVVKEAFNNPSRIEEIYVLDKNMEFVSLAKKYHIKYTVITSSEMNKMVSGNHQGVVALVK” stands -0.277. For the sequence “HMVAQQINDFRSERDASTGTLKRPLFDTLRDVISSRAQAYVSATGKPVTVEDLDRIYQAVEAEAKQAL”, the “soluble fraction (log2)” value was determined as 0.0781. Under “HMGDTLEIVVIYSNKQKAEEAVNNLKGKFEDLGYNFAIITVDTSKITQLAMESSIQYIEFPKSFYFSD” stands -1.64; under “HMLTIEEYLTQLKKLMKDRDAATVRDALSDAEEHLRNAMAGEDPSRLDGIIEEYGSPEEIAAAYKIMEEHT”, 0.0389. Under “HMVVVMEKNASSAEIEQVQERLRQAGFKIHLSQGVERTIIGAIGDRSQVDLGFLEALPGVEKVVPIMK” stands 0.0845; under “HMARLAGVDLPREKRIEIGLTYIYGIGLARSQEILKKAGINPDIRVKDLTDEQEQAIRNAMDGYIVEGDL”, -0.148; under “HMQVSDVTTIRALVEEVLSSSPQQLAQYRAGKLSLKGYFVGQVMKKGKGQLNAAAVNNLLDEIL”, -0.185. As to “HMDIFLPDVKGYDLIPSFRRHLPDIDVIAMTGYNTRALESAVRQQDVLFYMIKPFEASQLKEILEHLVK”, the “soluble fraction (log2)” value was -0.221.

Consider “HMFMKNTEVALAIKGKFSNQTTITSKELVLFLSDLFPELSNKTIPWKINQLKAENLIYQTGRGIYTFN”, for which the “soluble fraction (log2)” value was -2.57. Under “HMATSNGEFVIPDGGLQFEELERSLLMQALKKSGGSQTGAARLLGLSRDTLRYRLEKFGIDAAAVRE” stands -0.165; under “HMKFLYQQVYQDIKDKITSAQYQFGDLLPSEREIGEEYHVDRTTVRKAFSLLVDEGLVEKRAGKGSVVIS”, -0.594. Under “HMRDFTQPQTASIGPRMREALARGTMTVEELREQFRTQEFPHESVRTAFLEELERVAAELGLA” stands -0.0676.

As for “HMTSPRRLYALIVEHVGKDGVMHRSDVENVLAKVESEMDVDDLLDQLEINGTIIRRQDGTWQLL”, the “soluble fraction (log2)” value was -0.197. Regarding “HMSEQIALQFAKAKQHHTGIALKGIEALELRYKGYTGKEIAALYHTSPKSVFSWISRAKQKLRQN”, the “soluble fraction (log2)” value was -0.375. For the sequence “HMVSVPDIGEKLPDFTGTPKRLLTPLLNKNDVNIIIKGDGWVVSQKPPAGTPVTKGMTIEFTL”, the “soluble fraction (log2)” value is -0.208. Under “HMFSIDRNIRRLRKEAGLTQEELAQKLFVTRQTISLWELGKVHPDLETLQKLAEQFQVDLLQVLYGPE” stands -2.17; under “HMTSEVPVGSNVRIRASTLAGERDFEGTMLPPAGEGLTTLKLVNGYNLSYPSKDVLDIEFLGGAGE”, 0.057; under “HMNLDPIKRKSEILSLFESHKNVKFNEIFFEKVNKEFTVLTFLIILELVKDNIIDFSQTQEGLIEFFTR”, -0.115. On to “HMTDTDVLSSRLSALSSGRTSAVRLRDGVLSLVLDVGGLSIEARKAMTTAIESTARATPGVEAVRIAET”, for which the “soluble fraction (log2)” value is -0.0141. Consider “HMLRIIDYNRVVKDLNGLTPEQLLEKLAESFTVEDKGTEEYRPTELHNFSMYLGGHWYSLTAKPGTYDDND”, for which the “soluble fraction (log2)” value is -0.937.

In the case of “HMKMHKIIKERRLALNFTQEQVAKYLGVTTPAVNKWEKGISYPDISLLPALARLLDTDLNTLLSF”, the “soluble fraction (log2)” value is -2.1.

“HMQITTVSPKNYAEAELIGQRFREGNPVVMDLSKLDSDLGQRLVDFASGLVFALNGTVERIAKKVFLLSP”: the “soluble fraction (log2)” value was -0.943. Under “HMADNILPAQTDAIKALATENGFSNESLEKYLIENYGTTIYGLSRNQGIQIINLFQSENPPKP” stands 0.144; under “HMSTIKEKIIQYLDFKGISKYDFYQKTGVSNGVLSQKSGMSEDNIMRFLSYYDDINTDWLFYGKGEMIKT”, -1.13; under “HMADQIIEGILGKEGGYVNNPNDKGGPTRWGITQTTARAYGYSGDMKALPRDTAKAIYLSQYWT”, -0.183.

For the sequence “HMSSWMTKDGKIKPISKWAGVPMTSQQQADYAAGKVVELTNIPDKQGQLNTVYLKFNPEKQRPTTSLNDPR”, the “soluble fraction (log2)” value worked out at 0.134. Under “HMKQQAYEQGKAAYQSGDWLRAVTQLGQVKEAGEKNGEVDHLLGNAYMKLGQFESAAYAYNSALEDVA” stands 0.269; under “HMPIKYTHKGYTINVSRSKMNGTTFVKVVDPKGQVIQQSQDNRIQDVNQLVTTMKQYIDTLKPS”, 0.189. Under “HMLGRPDMSPIPEGSRNNDLHAWGFGRLANHPDNKRQIEADFFERGRISGLGDAEIRASWNSILRQLGHQ” stands 0.14.

Values taken from the domain aggregation screens of Martell et al. (2025).
